Measurements reported in article PMC10529061.

Target: His6-tagged CHIP (C-terminus of Hsc70-interacting protein) (UniProt Q9UNE7)
Experiment: BLI

Chain of UniProt Q9UNE7 (Q9UNE7 whole entry): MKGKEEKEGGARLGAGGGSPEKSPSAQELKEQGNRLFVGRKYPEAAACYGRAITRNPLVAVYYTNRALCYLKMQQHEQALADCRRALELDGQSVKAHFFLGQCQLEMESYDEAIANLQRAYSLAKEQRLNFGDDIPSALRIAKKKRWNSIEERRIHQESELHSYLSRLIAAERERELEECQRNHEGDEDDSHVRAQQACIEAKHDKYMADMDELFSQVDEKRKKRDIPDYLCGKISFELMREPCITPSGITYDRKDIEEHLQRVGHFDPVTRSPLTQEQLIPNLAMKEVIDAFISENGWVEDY

Q: How did the Kd turn out when “E2 (UbcH5b), wild type (from UniProt P62837 1-147) (enzyme; other documents disagree on this pair)” was run?
A: 6.28 µM
